The results in this text go back to the supplement of paper PMC11246515.

This data set can be described thus: total protein half-life in vivo (active degradation + dilution); higher = more stable protein.
The mark [1] stands for this setting: E. coli NCM3722 delta-clpP delta-lon delta-hslV, growth: N-lim chemostat, doubling time 6 h.
Setting [2] is: E. coli NCM3722 delta-clpP, growth: N-lim chemostat, doubling time 6 h.
Where [3] appears, read: E. coli NCM3722 delta-hslV, growth: N-lim chemostat, doubling time 6 h.
[4] abbreviates: E. coli NCM3722 delta-lon, growth: N-lim chemostat, doubling time 6 h.
Where [5] appears, read: E. coli NCM3722 delta-smpB, growth: N-lim chemostat, doubling time 6 h.
Setting [6] is: wild type E. coli NCM3722, growth: C-lim chemostat, doubling time 3 h.
The mark [7] stands for this setting: wild type E. coli NCM3722, growth: C-lim chemostat, doubling time 6 h.
Where [8] appears, read: wild type E. coli NCM3722, growth: C-lim chemostat, doubling time 12 h.
[9] abbreviates: wild type E. coli NCM3722, growth: N-lim chemostat, doubling time 6 h.
Where [10] appears, read: wild type E. coli NCM3722, growth: N-lim chemostat, doubling time 12 h.
Setting [11] is: wild type E. coli NCM3722, growth: P-lim chemostat, doubling time 6 h.
Where [12] appears, read: wild type E. coli NCM3722, growth: P-lim chemostat, doubling time 12 h.

± gives the standard deviation of the averaged measurements.

Take “MVKSQPILRYILRGIPAIAVAVLLSACSANNTAKNMHPETRAVGSETSSLQASQDEFENLVRNVDVKSRIMDQYADWKGVRYRLGGSTKKGIDCSGFVQRTFREQFGLELPRSTYEQQEMGKSVSRSNLRTGDLVLFRAGSTGRHVGIYIGNNQFVHASTSSGVIISSMNEPYWKKRYNEARRVLSRS [P0AFV4]”: the “total protein half-life in vivo” value by setting is: under setting [1], 2.68 ± 0.98 h; under setting [2], 2.09 ± 0.79 h; under setting [3], 2.61 ± 1.4 h; under setting [4], 2.34 ± 0.085 h; under setting [5], 2.33 ± 0.45 h; under setting [6], 1.02 ± 0.41 h. Moreover, the “total protein half-life in vivo” value by setting is: under setting [7], 3.38 ± 0.45 h; under setting [8], 7.8 ± 1.4 h; under setting [9], 2.19 ± 1.5 h; under setting [10], 4.29 ± 1.6 h; under setting [11], 3.39 ± 0.15 h; under setting [12], 4.64 ± 0.49 h.
For the sequence “MIEWQDLHHSELSVSQLYALLQLRCAVFVVEQNCPYQDIDGDDLTGDNRHILGWKNDELVAYARILKSDDDLEPVVIGRVIVSEALRGEKVGQQLMSKTLETCTHHWPDKPVYLGAQAHLQNFYQSFGFIPVTEVYEEDGIPHIGMAREVIQA [P0AEH3]”, the “total protein half-life in vivo” value runs as follows: under setting [1], 4.51 ± 0.43 h; under setting [3], 3.93 ± 1.4 h; under setting [4], 3.58 ± 0.13 h; under setting [5], 2.23 ± 0.14 h; under setting [6], 2.35 ± 0.064 h; under setting [7], 4.3 ± 0.27 h. The “total protein half-life in vivo” value runs as follows: under setting [8], 7.04 ± 0.82 h; under setting [9], 2.68 ± 0.086 h; under setting [10], 3.85 ± 0.064 h; under setting [11], 4.54 ± 0.38 h; under setting [12], 9.98 ± 1.5 h.
For “MQKQAELYRGKAKTVYSTENPDLLVLEFRNDTSAGDGARIEQFDRKGMVNNKFNYFIMSKLAEAGIPTQMERLLSDTECLVKKLDMVPVECVVRNRAAGSLVKRLGIEEGIELNPPLFDLFLKNDAMHDPMVNESYCETFGWVSKENLARMKELTYKANDVLKKLFDDAGLILVDFKLEFGLYKGEVVLGDEFSPDGSRLWDKETLEKMDKDRFRQSLGGLIEAYEAVARRLGVQLD [P0A7D7]”, the “total protein half-life in vivo” value under setting [1] amounted to 4.82 ± 0.52 h; the “total protein half-life in vivo” value under setting [2] came out at 5.09 ± 0.82 h; the “total protein half-life in vivo” value under setting [3] is 4.79 ± 0.36 h; the “total protein half-life in vivo” value under setting [4] amounted to 5.32 ± 0.32 h; the “total protein half-life in vivo” value under setting [5] turned out to be 4.74 ± 0.15 h; the “total protein half-life in vivo” value under setting [6] is 3.26 ± 0.21 h. Besides, the “total protein half-life in vivo” value under setting [7] is 5.98 ± 0.26 h; the “total protein half-life in vivo” value under setting [8] amounted to 10.8 ± 0.71 h; the “total protein half-life in vivo” value under setting [9] is 4.61 ± 0.12 h; the “total protein half-life in vivo” value under setting [10] is 8 ± 0.35 h; the “total protein half-life in vivo” value under setting [11] turned out to be 5.28 ± 0.41 h; the “total protein half-life in vivo” value under setting [12] amounted to 11.8 ± 0.46 h.
Consider “MRKKIEMSLIKSPANGVVIKRKISDGLKEIVSLKEKILLETTAKIQSIEEKREEKFIQGYYDGYTKGIIDEMDNFIPLISLLCSELEKKRINMINDLKSILLKPSEEVDVFIKIFESWVTKLPSISGPVNLHIPTSFKDKSLEVESYFVDKSIWNVHITFHDDKRFVFFTDQFIAEFSPQEFVDNCEQYLINNHCFSPDKVNEICEQARHYLVEKMFETHSLDMNNSVLASPEDL”, for which the “total protein half-life in vivo” value under setting [10] is over 16 h.
As for “MADKELKFLVVDDFSTMRRIVRNLLKELGFNNVEEAEDGVDALNKLQAGGYGFVISDWNMPNMDGLELLKTIRADGAMSALPVLMVTAEAKKENIIAAAQAGASGYVVKPFTAATLEEKLNKIFEKLGM [P0AE67]”, the “total protein half-life in vivo” value runs as follows: under setting [1], 4.52 ± 0.43 h; under setting [2], 4.01 h; under setting [3], 3.69 ± 0.95 h; under setting [4], 5.08 ± 0.6 h; under setting [5], 4.41 h; under setting [6], 2.33 ± 0.22 h. The “total protein half-life in vivo” value reads like this: under setting [7], 4.08 ± 0.41 h; under setting [8], 5.96 ± 0.14 h; under setting [9], 3.82 ± 0.84 h; under setting [10], 5.61 ± 0.14 h; under setting [11], 3.91 h; under setting [12], 6.33 ± 0.44 h.
